Data as given in IntAct's records for PubMed 21346797.

B1: Response regulator aspartate phosphatase H (Bacillus subtilis), Q59HN8 (parent)
chain: MSQAIPSSRVGVKINEWYKMIRQFSVPDAEILKAEVEQDIQQMEEDQDLLIYYSLMCFRHQLMLDYLEPGKTYGNRPTVTELLETIETPQKKLTGLLKYYSLFFRGMYEFDQKEYVEAIGYYREAEKELPFVSDDIEKAEFHFKVAEAYYHMKQTHVSMYHILQALDIYQNHPLYSIRTIQSLFVIAGNYDDFKHYDKALPHLEAALELAMDIQNDRFIAISLLNIANSYDRSGDDQMAVEHFQKAAKVSREKVPDLLPKVLFGLSWTLCKAGQTQKAFQFIEEGLDHITARSHKFYKELFLFLQAVYKETVDERKIHDLLSYFEKKNLHAYIEACARSAAAVFESSCHFEQAAAFYRKVLKAQEDILKGECLYAY
partner: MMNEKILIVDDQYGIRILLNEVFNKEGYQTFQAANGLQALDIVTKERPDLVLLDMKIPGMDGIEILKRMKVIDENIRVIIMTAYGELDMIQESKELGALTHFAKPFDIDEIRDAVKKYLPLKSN

Variants of: B1
Conditions: with sp0f_bacsu spo0F

Effect of a mutation on the interaction, disrupting interaction:
Y175A
Q47N
L50A
E137A

Effect of a mutation on the interaction, decreasing interaction:
D134A
F58A
